Source: the DeepSol protein solubility set

Experiment: soluble on expression in E. coli; label from the status in PepcDB or PDB records

Row | Sequence | soluble on expression in E. coli
1 | MKSEILQQIKQYETIILHRHVRPDPDAYGSQMGLAEIIRASFPEKKVYSVGNDEVSLQFLGAVDEIADEVYKDALVIVCDTANQERVSDVRFSSGQKLIKIDHHPNDDAYGDLLWVDTTASSCSEMIVAFWETFSDELILNETAARLLYAGIVGDTGRFLYPSTTEETLRLSAHLVTFPFDRPALYRELYELPKNTVKLSGYILQNFVMDENGAATVYLSDTLLREFEVDPRDASALVSCIENVEGIKAWIMFIQEGPVFRARLRSKGPVINELAKEYGGGGHPLASGATLHNEEEIKEMTVKLARICAAKLEHHHHHH | soluble
2 | MITLYGFGKCFNVMDASPFVVKVDLFMRMANIPCQVKYGAKYLKKSPKGKLPFINDNGTVVADSDAIITYLTKQYQVTLDAELTPEQKAQAHLITKSLDEGLYWCLVYSRWATDECWPLTNEAFFATLPIPLRWFLPNIIRKSVKKNLHGQGVGRHSLEEILAISDKSLASLSTLLADKNFFFGDTHTSFDAVVYSHLCEFISVRFDNGFESKFTKNAKRYQNLVQFCQRIEDKFYPEKLEHHHHHH | soluble
3 | MKLKITLYSVCLLMLLAACQQDGPTPEPSVGSRTVLVYMIAQNSLAPLASADIEEMKEGMRQVDATSGNLLVYIDDYSAPRLIRLGKDKKGKVVEETIENYPEQNSADANVMKKVISTAFNQYKAEKYGMVFWSHGEGWIPSPAKTRWFGQDGNNYMDIADLHAALQVAPDLDFLFFDACFMEAVEVAYALRDCGSYLISSPTEIPGPGAPYQTVVPAMFSAENAALKIASCYYDYYQSRYNDGIGMSNEDWTGGVSVGVAKMSELENLAVATSKVLPRYITGKQNFDLSGVMCYDRRTDKQYYYDLDRFIYQITAGNGDYDSWREAFDKVMVYWKSTPRNYSAYAGMFTMNQDAKGLSTYIPRMSAPSLNTSYQQTEWYKVSGWADTGWYKNLEHHHHHH | not soluble
4 | MAHHHHHHMSVATEMKVEEGIHLCGDQEFKLEDISSCVSEIFEKKKKYENIPFIQVAPMINVTNRHFRALVRTITRRAQVWTEMIVDNTLLYNLNNLEEHLGFNSNEHPIVCQLGGSDATSLAEAAVLVEQAGYDEINLNVGCPSTKVANKGAFGAYLMKKPEHVRNIVYEIKRKVHIPVSVKIRTGVDDCDSFPFLRSFVECISSVGCSHFIVHARKAWLKGLDPKQNRSVPPLEYPKVYSLCQLYPHLKFTLNGGVKTVEEAVALLNGYLPKKGNVDSEKTYVQVKNYQVNPLHGVMLGRACMENTTVLSQTDQLVYNEKPPHTAFSRRTVLDAYKSYLEENSSLCSLSSAFELLKPVLGILKGMPGHRIFRNKLDMYIRNYASTLPCSGILEKAMVDVDAVAPGCLDLPLADYKLQQEYIKNY | not soluble
5 | MKDLKLDEHTGLVLEGGGMRGVFTCGVLDYLMDHDIRFPYAIGVSAGACNGLSYASRQRGRAKFSNIDLLEKYNYIGLKHLLRKRNILDFDLLFNEFPEHILPYDYDTYFASPERFVMVTTNCMTGEANYFEEKRDKSRVIDIVRASSSLPFVCPVTYVDGVPMLDGGIVDSIPLQRAIADGYTRNVVILTRNRGYRKDTKDIRIPSFVYRKYPKLREALSRRCAVYNEQLEMVEQMEDEGKIIVIRPQKPVMVDRIERDVQKLTEFYEEGYDCARNLFEF | soluble
6 | MGSDKIHHHHHHMDEIVKVLSQHDRILVVGHIMPDGDCVSSVLSLTLGLEKLGKEVKAAVDYKIPYVFEKFPYIDKIEENPNFDPELLVVVDASSPDRIGKFQDLLDKVPSVVIDHHSTNTNFGNWNWVDPSFAATAQMIFRINKALGVEYDSNLATLNYLGIATDTGFFRHSNADVRVFEDAYKLVKMGADAHFVAKEILENKRFEQFKLFAEVLERLQLLENGKIAYSYIDYDTYLRHNCTDEDSAGFVGELRSIRGVEVAVLFMEFPRGKIHVSMRSKDWFNVNEVAFELGGGGHPRAAGVTFEGKKIEEVIPRVINHLLKKFKEGVESESEKIPEGDVLGG | not soluble
7 | SRLFDEVVKKELDEAALKGVILTDGELKPEEFSMHIAEQLRAGGPFGQAFPEPIFDGEFKVLHQKLVGEKHLKLMLEPLYKGHPTNVMIDGIAFNVDLRRWPDASVKTVRLAYKLDVNEFRGNQSLQLMIDHIEAK | not soluble
8 | MEDEIKSFEKDRNLIIEDSKNSKNNIVDVQKLIEALKDEKNAKNIVVDFTEYNPLHNGHKYCMDFGKSEGLFISVIPGPLERSGRGIPYLVNRHIRAEMALLAGADLVVEGPPMGIMGSGQYMQCLIKIFSALNGDIIPRGYIEEETMERVINSINNGNHIKIKPYNISCIETREKLGEKLEIDNYVIASMSYTIYKLKENFPKWNPKFKFIERIEGISGTKIREGVFNNNFESIKHMLPITTIDVFKNFGDNLSEIILKRNEEMVLDTVNNFDLNKYLPENISEKLNEKEYYESIEEIKEYIPRGFSKNNIERTISKLEARIEKETISKYIENYPANLRILNGINNHE | not soluble
9 | GMEEINKYIQNSSETGGEIYNLIEELFPICRSITGNGVRKTMDIIRKHIPLEIHEVKSGTKVFDWTVPKEWNIKDAYVRNSKGEKVIDFKENNLHVMSYSVPVHKTMTLDELKPYLHTIPGNKDRIPYLTSYYKENWGFSLTQNKFDELCDDDYEVVIDSSLEDGSLTYGEYYIRGELEEEILLTTYTCHPSMCNDNLSGVALITFIAKALSKLKTKYSYRFLFAPETIGSITWLSRNEDKLKNIKMGLVATCVGDAGIKNYKRTKFGDAEIDKIVEKVLMHCGSEYYVADFFPWGSDERQFSSPGINLSVGSLMRSCYGFDGYHTSADNLCYMNKDGLADSYKTYLEVIYTIENNRTYLNLNPKCEPQLGKRGIYRMIGGGSDYPFDEFAMFWVLNMSDGKNSLLDIAYKSGMEFRRIKYAADALYRVELLKLV | soluble
10 | AMKNWKTSAESILTTGPVVPVIVVKKLEHAVPMAKALVAGGVRVLNVTLRTECAVDAIRAIAKEVPEAIVGAGTVLNPQQLAEVTEAGAQFAISPGLTEPLLKAATEGTIPLIPGISTVSELMLGMDYGLKEFKFFPAEANGGVKALQAIAGPFSQVRFCPTGGISPANYRDYLALKSVLCIGGSWLVPADALEAGDYDRITKLAREAVEGAKL | soluble
11 | QVQLQQSGPELVKPGALVKISCKASGYTFTNYDINWVKQRPGQGLEWIGWIYPGDGSTMYNEKFKGKATLTADKSSSTAYMQLSSLTSENSSVYFCARLDGNYGGWFAYWGQGTSVTVSSAKTTPPSVYPLAPVCGDTTGSSVTLGCLVKGYFPEPVTVTWNSGSLSSGVHTFPAVLQSDLYTLSSSVTVPSSTWPSETVTCNVAHPASSTKVDKKIVP | soluble
12 | MSIRSLGYLRIEATDMAAWREYGLKVLGMVEGKGAPEGALYLRMDDFPARLVVVPGEHDRLLEAGWECANAEGLQEIRNRLDLEGTPYKEATAAELADRRVDEMIRFADPSGNCLEVFHGTALEHRRVVSPYGHRFVTGEQGMGHVVLSTRDDAEALHFYRDVLGFRLRDSMRLPPQMVGRPADGPPAWLRFFGCNPRHHSLAFLPMPTSSGIVHLMVEVEQADDVGLCLDRALRRKVPMSATLGRHVNDLMLSFYMKTPGGFDIEFGCEGRQVDDRDWIARESTAVSLWGHDFTVGARG | soluble
13 | MTAWHRLPAAARALFGAKGGCTGSQRSYDDVLRVMYELTLRVVNPTYRNRTLANTSGKSAELVGLLVERLNMRRCLDTLRFVHVAGTKGKGTTASYTAALLEAYGLKVGLFTSPHVKDVRERIMVNNEVLPMDTFVHYFFQVVDCFVELAGADKEVTWDLPAPCSFFCLMFLVSLVAFAGESVDVAVVEVGIGGSRDPTNIIIPEASVITALGIDHTEILGDTVEEIALQKAGIMKPGVVCYAAPQGDHPSTRRVLKDYAEGVDSPLVFADDVAVPTDGWPCLSIGGEHAVENSRLALLAARSVMGIPLTQPLDDVERHVLQRTTVMGRSQVLPVGDGSKGTFYLDGAHTYESLRCATRWFVKESTKRTCDSKPRRVLLMYSSRQPERIVEAFRPFVDSFSKAVFVCALDPKGMREIWKNNSDAYTQDKATGLIRCWKTLCGAVPCFSRAAPFVSVEEVVEVVSAASSDDEDTSKPVQVFVTGSFFLVSDIVNLYDSQGS | not soluble
14 | MGSDKIHHHHHHEDTTSSPEEDPLAPQNDDADLLLKPLIAKDPRTRGQRGPFAAMTGSYGRGGYGGSGGGAFGGFNGGYGQGGYGGGGDFGGGMGGGGYGGGGYGGGGDGGGGYGGYGGGGYGGMGGGPGGYGMGGYGGGGGGGGDFGGYGGGGMGGGGYGGGGDGGYGGGGFGGGGMGGYGGGMGGGGYGGGGMGGGGYGGGGDGGYGPSGGYGGGYGPGGGYGMGGGGGGGGCPNGECRGKK | not soluble
15 | SLLCGPLRLSESGETWSEVWAAIPMSDPQVLHLQGGSQDGRLPRTIPLPSCKLSVPDPEERLDSGHVWKLQWAKQSWYLSASSAELQQQWLETLSTAAH | soluble
16 | MSELRKLELERKKQKLAELKSQRKREEDARVQNLLRSTNENGTTQNGTSRQTLSSNEVEDILRQVGISTEPTVREESPAPPPGSHSDNHVDPSASHPRISNLLSVDLEFSSVQTACTDNKDSAIYSKGTQTDDERISVGEFSLGSQEFDYDDDMIMPMDHGQFRGRAHSHDQDSPLPYNEEIAKLLGQTKQGDKGLTRQETEEKKTQTVQIVPPLSDEEKYRLTLDPEFLDSFNRSCKVISRALNEEIDICINYTKDPYEKAIASDDLLHLAQVYQDETWTAKRLVTGMAFSEHYPDLLAVSYGPCDIPNEPPGVIVVWNTKSKRMTAEFIVYCQSEIQSVAFARFHAHLLLAGCESGQICVWDNRLTSRKLPINRSPLTTQAHTYTVSCLAVVGTKNAHNFVSLSRDGRICSWNVDNLTQPVDGKELMTKEGKAASATRMSFPIGEMQTFVVGTDTGEILAASRNGADPAVIKTDVCYKGHSGTLTGIEFHRASGVVDFSHLFISSSHDWTVKLWSTKDANLKFSFESHPDLVLDVAWSPVHPAVFASIDADGNIFVWNLNEDVEGPVARLRAGAEGESVYMNRLIWSPDGKHVFVGDDEGRVHMYDVRESLYVLKSEEWNRFARVLSDMKQSNEEAENYNM | not soluble
17 | MGSDKIHHHHHHMDVVDELIKLHEEHVSGLLRLCGQAGWPDYGEQELKLLVQQGRFFGYQNVSGDIISCIGLFLFGRLTSIGLVIVDKEYQRLGLGRRMVNACITQTDENTAIRLCATKEGLPLYEKAGFHTAGSVRKYSCHSFQPYTKKLDAELTSFREQDFHDLTAADLAAFGGDRSNLLQQLISASCECIIARNQDGQLIGYGLSVQTPANLKFGPIIAPSSDVAAQIITRLAAGKQGPMRIDIPSEHTSLHDSLIEMGFHKDDEPPILFYQKKAPIQNGHLYALISQALG | not soluble
18 | MACLSPSQLQKFQQDGFLVLEGFLSAEECVAMQQRIGEIVAEMDVPLHCRTEFSTQEEEQLRAQGSTDYFLSSGDKIRFFFEKGVFDEKGNFLVPPEKSINKIGHALHAHDPVFKSITHSFKVQTLARSLGLQMPVVVQSMYIFKQPHFGGEVSPHQDASFLYTEPLGRVLGVWIAVEDATLENGCLWFIPGSHTSGVSRRMVRAPVGSAPGTSFLGSEPARDNSLFVPTPVQRGALVLIHGEVVHKSKQNLSDRSRQAYTFHLMEASGTTWSPENWLQPTAELPFPQLYT | soluble
19 | MKMDTGALTFQQKIYWLVKQIPLGRVATYGQIAALCGWPRHGRYVGYALYRVAPNSDIPWHRVVNAQGKISYAPQRRGTDELQRWRLAAEGIIFTAGDRINLRRYQWQPPATVYQQLIWPEGAATDSAKALEHHHHHH | soluble
20 | MAHHHHHHMVEEVTIGRDFVTVRRVDDDDTAAAVRQYAVRLGGNPTATPEETAERSAALQRKVMDAMEENCEQVKTLSGRNDPNESVDGGGENTEDNLGSQGGVALDSVDEAALRDLVRSTHWSELKLHVSALLTDHLYSGRAHIDADAPHPHPDTIPQDGDSEVVVVLKELISTTIRPQLQADGGDIRFVGLADSVMLVEMLGACRKCRSSKTTLRDMIERTTRHWVPEVQKVEEVER | not soluble
